# In the NTF2 design screens of Basanta et al. (2020):
# Test: protease stability score; higher = more stable; yeast display proteolysis, trypsin and chymotrypsin;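 also: log10 excess protease needed over predicted unfolded state with 0 meaning unfolded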
row,Sequence,protease stability score
1,DEDQELRSLAEDAVRAMQSNNPDDFVNLFPENARINIGDKNIHGREEIKKHAQEVNTKVDRFSVTIEHIHVHNGKAEFTVDFVMNINGRTERRRASFRIDRIGDKVRIHSADVK,0.571
2,DEDQHRRWQELMKAIETGDPERIKELMDPNAEFVVGDKHVRGREKYAREVHRELRTMRVEFRILSLRVQGDRLLADVEVVTHDDGKPTSHRFKLEVKAENGTIRVFRNQSVP,0.155
3,DEDQLKVALKAIRAQNNNNPDELLKLLDENVRLQYGDKTVHGREEVKEMIKHWLSHWRWKIDVRRYSVHNGVARIEALVTINVNGKPQTFTVVIHVRAENGRIKEMHYHFDEEDQEKIRS,1.37
4,DEDQLRNIAHKLNEVWQNGDPDEMKKLLDPNVKFRYGDKTVQGMNEYVTILREMVKRIDHAHVRDFTAHNGRIDIDIQFDVNGRTVSAKVSYVVDNGKVKRAKFDPKNMKKLQS,0.036
5,DEDQMAETLFDEIRKIWETGSEEDAKKMMDPNAHVHVGDKEVTGREEIAKRLHDEAKKADHINLTLEDVEVKGDKAQLHVRFQLHVNGKRDERRIVFVFRNHNGRLIMVTASDS,1.44
6,DEDQMEDLKRKWEKNDWRRFARNADPNVRVEVGDRRYHGRTDALRAMKIIEDTADRIQIDRVKSTNGKVTVDLVLVVNGNKIRARFEAVVHNGQVKHFTMKFRDKDDKRRFNEAMS,0.582
7,DEDQNRKMEHALRKNDWTRLAEQADKDVKVHIGDKVLHGREEVLKYLKRFQENVDHIEIKRMEATGNKVTVEYDVNFDGTTLDVTFKMVVQNGTVEHMTFDFRSEEQEHEAKKAYG,0.627
8,DEDQNTVFEEVKKAIRTGDEEMLKTLMDPNVRLEYGDTEIHGREEAVRQISTRHNQLHVDEQIKDIKAHNGKVDVDFEVHRSHNGDPQHRRASARADVSNGSVKELVVKYDK,0.014
9,DEDQQKEVEKMLQDRRTNNPERIRKMFDPNARVQVGDKTINGREDAKRYAEEERDQIRVEYKSINISVHNGRVQVDVRARFNHNGKPETRQFNLDASIHNGRIKEFQQRDDK,-0.163
10,DEDQQRKWEDWERHLRQNNEEKLVEMFDPNAKWVIGDKRWHGMEEAASKLATRVKNLHIEIRSMRVKVDGDTVEIDVLVTYTHNGQPSEKREILYIHAHNGEVKKVHFEDRE,0.412
11,DEDQRRKLEDLLRAYRTGDEKRIVEMADPNVEMHVGDHEVHGMEKIARKQVRTNQEARVDYEDWRLDFQGDKVNFEFDLRRDHNGEPETHKVDMTIVFKNGRIKSQSVRNTK,-0.135
12,DEDQVEVMRELWRAYEDGADDQLKKLVDPNARFEVGDKHIEGREEYARDMQRQRKEIRVHYREISIENREGRLHIDYIYQRTHNGQPQTVRQVVEVDIKNGVVQRQRVQDVS,0.474
13,DEDQVLKVIEKALKAIQQGHREEAKKLGKPNVEVQAADQRDKGPDALLKMVEQVQKVGDKFEYKETRKKGGTVTTRVEVTFGGKTVEYEVNVQAEGGKVQKWEVRIDDDFIEQVKKS,0.671
14,DEDQVQRVREMIKAWQHNDPEKLMQQVDPNVKARVGDKTLQGREQMSKDLDRRRKEARFVIRVQEVDKRENRVQVNVKMKVNHNGHPHSFSFILNVEVHGDHIHTIHIERDK,0.356
15,DEDQVRQANDNVIKAMKNGDPRKFKELFDPNARANYGDKEIHGMHTAMQRLVELLQQVDHIRIKDIKVENGHVHVDLVLEVNGRSVRFTITFRQSNGKVEELRMDPEDQKTLRR,-0.186
16,DEDQVRRIIQDLRRNNFEKMVELMDEDVKIDVGNYDYHGREAAHEILDRIRRQIDHIEYKSVTAQGDKIDVKAVAIINGKEWTFRVEVDADNGRIHSMKIRFRSEKEEQDYQKEVQ,1.11
17,DEDQVRRVADKMFKMAVNGNKDEMKKLGKPNVEYKYLDKEYEGPDALKRVADKVKKIGAKVETQRREVKGDKVTAVFRYNDGDHTVQTTAEVQYEGDVVDRARVEITDEVKKVAHKG,-0.093
18,DEDRAKSFMQAVVDNDPDKILKMMDENVRIEYGNKEIHGHEDLRKFWDKLKDQVDHYQVDRYSIHNGTVNVDAQMVVNGVRVRFTIVAELRNGKVTSVKYRVTNPRQERQLDELWG,1.23

row,Sequence,protease stability score
1,DEDRARRLMEKMFKIILNGNDEEARKMGAPDVEYQYADKTFHGEEAMKYIVKVVKRVGVKVRQEKHEVHGDTATAHFQYENGDTTVETQAHVQYEGDKAKKVEVKNSDEVRKLVDQG,0.228
2,DEDREAKKNLENMQKVLEKGDPDKMSELVDEDVRFVVGDKTFQGREDVRRRMETNVKRVDHIEVQIKHYEVKNGRARADAVFRVEVNGKETTRKFDVQVKVENGRFRVEQIRYK,0.265
3,DEDREKEVVDILRDGNPDDAREMADENVTVRVGNKVIHGREEYHRFIKRMQDQADHRHIDSVHHRPGRVRIQFRAVVDGQKFSAQMTVKVENGRVKSAQLDATDESVKKILEHIFG,1.16
4,DEDREKRFAKHVADVLRTGDSDRLQELADENVRMRIGDKTYKGRENFTKALEELRNRVDHIDIKSVKVHNGRISIDFVMRHNGREQTAVLIMHIHNGRIESQEVHSK,0.618
5,DEDREQEMLEKMVQIWEEGDEEKMVRLADPNVTVRVGDKNVHGRKHLREELQKERKQVDHFYVRHITIHNGTVNLDVEYNHNGQREQATVIAKVHDGRIKELSVHSS,-0.204
6,DEDRKAREFIHDEQRAFEQNNPDDIVRLADPNVRVNIGEHDVRGHEDFKKWVDELLEKYDQINFKVTSVSVRGDHIEATVMIQNQKNGEDDTHVVLITLKDHNGRLLIEMIQER,0.315
7,DEDRLRELVKKFVDAMRTNDEDRIREMMDKDVRVEVGDTVIKGHNEAKKWAKRLRERADHIHFDSVHVQGDRAEVDFQVRHNGKTDRNVLVLRMNNGRVQELRVHTK,1.81
8,DEDRLREQATNFIEAMQTGDTKRVDEQIDKDAQLVVGEKKYEGREQISTFVKEMHHQFDHVRLQRVTVSGNKVLLDVVMDFNGKDLRINIVIHMNNGKISQVQVDYTNPEDAKTARG,0.587
9,DEDRMKRLVRIFEHGDEDKLRKQADENATLKVGNHEIHGREEVQTFAQILKERVDHFHVRRVDLKGNSITALVRATVNGQSVEFKVIIVVQNGRIKKITIHATSEEQMKQLDKLFS,0.959
10,DEDRMRELMKVMMDAVRNGNQEQAYKVMDEGGEFHVGDKTVRGPEQVKEYVKEVQDWGNHVEYKETHYEGDTATVKTQAHLGDVTVDFEVHYVVKGNKLKRFEVRFNKEQIKEFKKS,0.593
11,DEDRMRKLLEQFLTALLQGDPEKMMELADEDVRMTYGDKEYHGREQVRDWAKDYRDKVDHASVHSYEVHGDKAQAIVVANVNGRTLSYTVVVRFQDGRAKHIKFESS,2.23
12,DEDRMTEAEKILKENNPDQMRDLFDENAKAEIGDNDLHGREHIVEEQRRYNEKVDHVQYHSVTFSNGKMRFDVRASVNGKKFRFQAEFHLDNGKIKHIKIDFRDEEDEKEFKRVVG,0.66
13,DEDRQQTLADELVKALEKGDFEKIEKLADPNVRVEIGDRHVRGREQASKELKKYTDRVDEVRIDSLEVQGEKVSADFRFNVDGHTIRLTAEITFHNGRIKMMRFHFTNEDQERRYKS,1.02
14,DEDRRAKELAERLDEALRTGDEERLQRLFDKDVRFDIGDKTIHGRTEAARQMVTHANRADHVHMKVTDLKRHGSRIVVVVHFRQNINGKKDSRDVKIEVKLEGDRIKVVRATYR,0.888
15,DEDRRAREWVETMQDIVENNNERDMKKLFDPNARVSVGDREYHGEDEIAHVLQREMENADNIHIEVKSIIVHGDKVTVDLTVSVQVNGKTETDRVRMVLKDKDGRIQVVSVQQT,0.597
16,DEDRTRRMLEKVFEYVVKGDVDHVRKHGKPNVRYEYADKKKEGEEVYKLIVKIVKKVGAEAKRREQEVKGDTMRANFQYNKGDKTVQTTAEAQYEGDKADKLRAELTDEVKKVVHQG,-0.152
17,DEDRVRKVAKEVFEMLKKGDVDKLKELGKEDVVFQFGDERVKGVEEYRRIMKEMQDQGVQHEVKKAQVKDDTAKMVTVVTYGNKDVQLTAEATYEGGRLKEARVENTEEYKKIAKKS,-0.084
18,DEDRVRRHLEKAFKVIQNGNEEEAKKIGAPDVEYHYADKELEGEEAVIVAVRIVKKIGAEVKTQEEEVKGNEMRATFQYKKGDTTVQTKATVVYEGDKLKKARVELSDEVKKIIHQG,-0.111
